The record followed here is the supplement of paper PMC9112550, “Optimization of the antimicrobial peptide Bac7 by deep mutational scanning” (BMC Biology, 2022).

The subject of this data set is Escherichia coli TOP10. The data set is described as follows: shrunken log2 fold change of peptide-encoding DNA abundance (4.5 h post-induction vs induction); higher = less antimicrobial activity (less host growth inhibition). To be noted: time post-induction: 4.5 h; library: site-saturation at positions 5, 18, 19, 20.
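Further: peptides expressed intracellularly from a pBAD plasmid library in pooled LB shake-flask culture, induced with 0.3% L-arabinose, DNA abundance read by NGS, three biological replicates, DESeq2 with apeglm shrinkage.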

As to RRIRHRPPRLPRPRPRPDHEPRP, the “shrunken log2 fold change” value is -0.018. Take RRIRYRPPRLPRPRPRPNYWPRP: the “shrunken log2 fold change” value was -0.698. As for RRIRWRPPRLPRPRPRPPDQPRP, the “shrunken log2 fold change” value is 0.694.

Regarding RRIRFRPPRLPRPRPRPKWGPRP, the “shrunken log2 fold change” value came out at 0.129. Regarding RRIRMRPPRLPRPRPRPQFPPRP, the “shrunken log2 fold change” value was 0.16. Turning to RRIRRRPPRLPRPRPRPAARPRP, the “shrunken log2 fold change” value was 0.287. On to RRIRARPPRLPRPRPRPPYCPRP, for which the “shrunken log2 fold change” value amounted to 0.276. For RRIRFRPPRLPRPRPRPRADPRP, the “shrunken log2 fold change” value was determined as 0.223. For RRIRGRPPRLPRPRPRPAGFPRP the value was 0.775; for RRIRIRPPRLPRPRPRPTLRPRP, 0.0906. For the sequence RRIRARPPRLPRPRPRPKTWPRP, the “shrunken log2 fold change” value came to 0.261. Consider RRIRCRPPRLPRPRPRPPWLPRP, for which the “shrunken log2 fold change” value was found to be 0.241. RRIRCRPPRLPRPRPRPWRMPRP: the “shrunken log2 fold change” value is -0.116. Consider RRIRSRPPRLPRPRPRPSHDPRP, for which the “shrunken log2 fold change” value was -0.308. RRIRQRPPRLPRPRPRPLVCPRP: the “shrunken log2 fold change” value came out at 0.0584. As to RRIRYRPPRLPRPRPRPLNPPRP, the “shrunken log2 fold change” value was 0.0535.

In the case of RRIRPRPPRLPRPRPRPCSRPRP, the “shrunken log2 fold change” value is 0.0759. As to RRIRYRPPRLPRPRPRPHRHPRP, the “shrunken log2 fold change” value was -0.615.

Turning to RRIRYRPPRLPRPRPRPAMAPRP, the “shrunken log2 fold change” value was determined as 0.0187. Then RRIRIRPPRLPRPRPRPKQTPRP, with -0.0291. As to RRIRQRPPRLPRPRPRPQNHPRP, the “shrunken log2 fold change” value was -0.481. For RRIRFRPPRLPRPRPRPWHEPRP the value was -0.00448; for RRIRERPPRLPRPRPRPYVQPRP, -0.0184; for RRIRTRPPRLPRPRPRPNFMPRP, -0.401. As for RRIRERPPRLPRPRPRPGSRPRP, the “shrunken log2 fold change” value was -0.0607. As for RRIRIRPPRLPRPRPRPGDFPRP, the “shrunken log2 fold change” value was -0.162. Then RRIRRRPPRLPRPRPRPPDMPRP, with 0.432; and RRIRYRPPRLPRPRPRPVVRPRP, with -0.203.

Take RRIRQRPPRLPRPRPRPLEMPRP: the “shrunken log2 fold change” value is 0.155. Turning to RRIRNRPPRLPRPRPRPREYPRP, the “shrunken log2 fold change” value was determined as 0.0336. On to RRIRGRPPRLPRPRPRPMCKPRP, for which the “shrunken log2 fold change” value was 0.886.

Regarding RRIRHRPPRLPRPRPRPMLHPRP, the “shrunken log2 fold change” value was determined as 0.195. As to RRIRDRPPRLPRPRPRPKPYPRP, the “shrunken log2 fold change” value was -0.12. As to RRIRHRPPRLPRPRPRPFQNPRP, the “shrunken log2 fold change” value is -0.195.

Consider RRIRFRPPRLPRPRPRPGNCPRP, for which the “shrunken log2 fold change” value is 0.0888. On to RRIRDRPPRLPRPRPRPCFQPRP, for which the “shrunken log2 fold change” value was -0.0196. For the sequence RRIRGRPPRLPRPRPRPGNHPRP, the “shrunken log2 fold change” value is -0.147. For RRIRGRPPRLPRPRPRPECTPRP, the “shrunken log2 fold change” value is 2.08. As for RRIRIRPPRLPRPRPRPDTSPRP, the “shrunken log2 fold change” value was -0.283.

As for RRIRSRPPRLPRPRPRPRPYPRP, the “shrunken log2 fold change” value is -0.244.

Consider RRIRIRPPRLPRPRPRPAKWPRP, for which the “shrunken log2 fold change” value was found to be 0.109. Consider RRIRFRPPRLPRPRPRPVRRPRP, for which the “shrunken log2 fold change” value is 0.122. Then RRIRARPPRLPRPRPRPYSYPRP, with -0.292. For RRIRTRPPRLPRPRPRPPDDPRP, the “shrunken log2 fold change” value came to 0.408.

For the sequence RRIRNRPPRLPRPRPRPEPNPRP, the “shrunken log2 fold change” value was determined as 0.0829. As for RRIRTRPPRLPRPRPRPHLKPRP, the “shrunken log2 fold change” value was -0.207. Consider RRIRLRPPRLPRPRPRPLMRPRP, for which the “shrunken log2 fold change” value was 0.807. Consider RRIRQRPPRLPRPRPRPTWIPRP, for which the “shrunken log2 fold change” value is -0.057. For the sequence RRIRKRPPRLPRPRPRPPFVPRP, the “shrunken log2 fold change” value amounted to 0.209. On to RRIRIRPPRLPRPRPRPSVNPRP, for which the “shrunken log2 fold change” value is -0.225. Take RRIRYRPPRLPRPRPRPTRWPRP: the “shrunken log2 fold change” value worked out at 0.211. As for RRIRKRPPRLPRPRPRPTIVPRP, the “shrunken log2 fold change” value is -0.0951. Then RRIRHRPPRLPRPRPRPMQKPRP, with -0.0124; and RRIRLRPPRLPRPRPRPKIPPRP, with -0.292; and RRIRFRPPRLPRPRPRPEDMPRP, with 0.000714. Then RRIRPRPPRLPRPRPRPRQRPRP, with 0.382; and RRIRVRPPRLPRPRPRPKTSPRP, with -0.128; and RRIRRRPPRLPRPRPRPSGKPRP, with 0.845. RRIRVRPPRLPRPRPRPFVYPRP: the “shrunken log2 fold change” value is -0.439. For the sequence RRIRKRPPRLPRPRPRPWQIPRP, the “shrunken log2 fold change” value was 0.141. Turning to RRIRCRPPRLPRPRPRPKIHPRP, the “shrunken log2 fold change” value was -0.558. Consider RRIRARPPRLPRPRPRPQEKPRP, for which the “shrunken log2 fold change” value is -0.0334.

With RRIRLRPPRLPRPRPRPPPHPRP, the “shrunken log2 fold change” value came out at 1.13. With RRIRQRPPRLPRPRPRPLPPPRP, the “shrunken log2 fold change” value turned out to be 1.09. With RRIRFRPPRLPRPRPRPYHLPRP, the “shrunken log2 fold change” value was -0.643.

As to RRIRIRPPRLPRPRPRPVIAPRP, the “shrunken log2 fold change” value was -0.388. Turning to RRIRPRPPRLPRPRPRPILQPRP, the “shrunken log2 fold change” value is -0.224. Regarding RRIRKRPPRLPRPRPRPMVGPRP, the “shrunken log2 fold change” value turned out to be 0.0659. Turning to RRIRYRPPRLPRPRPRPNTYPRP, the “shrunken log2 fold change” value was -0.988. Turning to RRIRPRPPRLPRPRPRPWSDPRP, the “shrunken log2 fold change” value was -0.267. Then RRIRKRPPRLPRPRPRPACYPRP, with 0.13; and RRIRQRPPRLPRPRPRPGQVPRP, with 0.111. With RRIRWRPPRLPRPRPRPGLVPRP, the “shrunken log2 fold change” value worked out at 0.449. As to RRIRTRPPRLPRPRPRPEWGPRP, the “shrunken log2 fold change” value is 0.249. Consider RRIRSRPPRLPRPRPRPTSFPRP, for which the “shrunken log2 fold change” value was -0.189. Consider RRIRVRPPRLPRPRPRPMSTPRP, for which the “shrunken log2 fold change” value was -0.268. On to RRIRLRPPRLPRPRPRPFQAPRP, for which the “shrunken log2 fold change” value worked out at 0.0248.

As for RRIRFRPPRLPRPRPRPEDPPRP, the “shrunken log2 fold change” value turned out to be 0.379. In the case of RRIRNRPPRLPRPRPRPRNEPRP, the “shrunken log2 fold change” value was determined as 0.121.

Turning to RRIRVRPPRLPRPRPRPKVFPRP, the “shrunken log2 fold change” value was -0.0519.

Regarding RRIRRRPPRLPRPRPRPGKYPRP, the “shrunken log2 fold change” value was -0.307. RRIRCRPPRLPRPRPRPQQDPRP: the “shrunken log2 fold change” value is -0.046.

Turning to RRIRDRPPRLPRPRPRPVLVPRP, the “shrunken log2 fold change” value amounted to 0.0945. For RRIRQRPPRLPRPRPRPREGPRP, the “shrunken log2 fold change” value stood at 0.151. Regarding RRIRPRPPRLPRPRPRPFWEPRP, the “shrunken log2 fold change” value was -0.0196. Then RRIRARPPRLPRPRPRPMKSPRP, with 0.186. Turning to RRIRNRPPRLPRPRPRPQSEPRP, the “shrunken log2 fold change” value was -0.0564. As for RRIRARPPRLPRPRPRPVPLPRP, the “shrunken log2 fold change” value was 0.263. With RRIRKRPPRLPRPRPRPWYIPRP, the “shrunken log2 fold change” value was -0.568. As for RRIRQRPPRLPRPRPRPIYYPRP, the “shrunken log2 fold change” value was -1.26.

On to RRIRVRPPRLPRPRPRPENPPRP, for which the “shrunken log2 fold change” value came out at 0.0444.
